Test: soluble on expression in E. coli; label from the status in PepcDB or PDB records

Row | Sequence | soluble on expression in E. coli
1 | MNYEIVCGIETHIELATKTKIFCGCTTEFGGEPNTHCCPVCTGQPGSLPILNQKVVEYAIKAGLALNCKINTKSHMDRKNYVYPDLPKAYQISQYDEPLCEKGYIELDSGKRIGITRIHIEEDAGKLVHENGYTYIDYNRSGVPLIEIVSEPDISSAEEAREYAEKLQLIMRYIGISDCKMQEGSMRCDVNLSLRKPGDSRFGVRTEIKNINSLSFIQKAVMAEAERQADILDAGGTVVQQTMRYDEATNSVSPMRDKENSDDYRYFPDPDILRFSINDEKVEEIRASLPELPFDKLKRYVNVLGLPEATARQIFRYRKVAEFFEGALAEGASVKNAANLIVGTIFSNMDTEEEKELFDIRISSAQFAALVKLADEKKINIGVAQSTLQKMLESGKPVEEFIKPEDLAGISDEELESLCKEAIDANPKAVADVRSGKDKAINVMFGYIMKKTGGKADIRKVEVLLRKLIGQ | soluble
2 | MNYGFVKVAAAVPRVKVADCKFNSERLEGLITIAEGKGVQILTFPEMCITGYTCGDLFAQQLLLEQAEMALIQILNSTRQLDIISILGMPVVVNSTVINAAVVIQKGKILGVVPKTYLPNYKEFYEQRWFTSALQVSENSVRLCGQIVPMGNNLLFETAETTFGIEICEDLWATVPPSSSLALQGAEIIFNLSADDEGIGKHNYLCSLISQQSARCISGYVFSSSGFGESTTDVVFAGNGLIYENGYLLARSERFCMEEQLIINEIDVECIRAERRVNTTFAANKANCPGKEAVRISTEFVNSKDLNLTRTFNPHPFVPQGNELNSRCEEIFSIQIAGLAQRLLHTGAKTAVIGISGGLDSTLALLVCVKTFDKLGLSRKDILGITMPGFGTTDRTYHNAIDLMNSLGVSIREISIREACIQHFKDIGHDLNIHDVTYENSQARERTQILMDIANQTWGMVIGTGDLSELALGWATYNGDHMSMYGVNAGIPKTLVKHLVQWVAENGMDETSKATLLDIVDTPISPELIPADELEHHHHHH | soluble
3 | MNYQDVLDFWFAPDHTNFWFAKDSLFDDEIRTQFSTVHQQATQAELWSWRQTVEGRLAEIIVLDQFSRNLYRDQAQAFAQDSMALALAQEAITQQLDAQLSPEQRSFLYMPFMHSESKLIHEFALKLFQKLGNEINLSFEKKHKVIIDQFGRYPHRNAILGRQSTPEELEFLTQPNSHF | not soluble
4 | MNYSRIAEAIEYIRAHYKEQPGLDEVAEKVHLSPFHFQRIFTEWAGLEHHHHHH | not soluble
5 | MPAAAPGKNFDLSHWKLQLPDANTTEISSANLGLGYTSQYFYTDTDGAMTFWAPTTGGTTANSSYPRSELREMLDPSNSKVNWGWQGTHTMKLSGKTVQLPSSGKIIVAQIHGIMDDGTNAPPLVKAVFQDGQLDMQVKQNSDGTGSDVHNYFTGIKLGDLYNMEIRVTDGVAYVTMNGDTRSVDFVGKDAGWKNLKYYFKAGNYVQDNTSTGGSAIAKLYSLSVSHSNLEHHHHHH | soluble
6 | MPAALLISGPCKICDLPAHGNHFGVLSCRACAAFFRRASRSPRFQDKACEYGDCRIFDAGAYRCKICRLKKCYKVGMDASKFQKDRDLISSSNAYLKRTKVYAPQSLANFLGRPEFIISFEPEKASPFKTVIDVTDLVHKAAEIFQEDLANSPMPYKYSNSLEKLTLEMEDLRLRSSNHKVKIVRNIGKAESLVFFEQMFLATANWYARLPDFTSLDLRVKLEILKSTWMLWIRLNKLAETAQNQRIKEMGANIFMCSENTCLNVQDINVDWSWCTNYGAEQMQAFLMPNIDKHWRQPVEDLVKLNPTDMELNFMLIQLCLNDAGKKFQGRVLEATDKLLQINADNLHNYYTKKLNMPSYSGRLTKLMKINQIVEEDVRERKEKAKIVEVFDLFSIVYSHPEMFEGT | not soluble
7 | MPAEPQKSTEAGSVAPEKKLKACCACPETKRVRDACIIENGEEKCGKLIEAHKACMRAAGFNI | soluble
8 | MPAKDVQICPIAVDTTVFRSRTWDRLKFEIEYGLQRGTTANSYLISADKIALFDPPGESFTDNFVGTLIQRLDLNSLDYVILGHVNANRAHTLKLLLSLAPQATIICSNPAAQNLEKLLADAEVNNPIQVMKGNDHLDLGRGHELTFIPTPSPRYPGQLCTYDPRTEILFTDKLFGAHVCGDQVFDEGWTIYQEDRRYYFDCLLAPAAAQVSAALNKLEAYPAQTYAPSHGPLVRYGLRELTRNYQQWLEHHHHHH | soluble
9 | MPAKERFFGFHPCKLVEQVEDCVRDLLEDALDGLETSLFRECALAFDALQENAVTSEHEHAKRLLLQQGLMRLRDALFTAFYDQMDRLQVYLLRNVFHIPPGLRIPNVNTSEDLVENWEQALGIDPSSVQIDANAEDEHAVDQELVALRQSLRVARQRLQRLCRERSVLEGAFHRLEGALQSRLASTLIPTEPEDPSGDCDALAKQVVTIARAVSELEAVVRSCRDQFLGDRSSAASGGAPPSGTVPAAAGGSDVGAQGALVRPPLELERIFDAHTKATRVDSLDAVDALRRALHRSC | not soluble
10 | MPAKTGQEYMERLKRAKSSVYIHGEKVEDVTVHPAFRNVVRSMAALYDRQYEKPEKMLYRSPTTGQLVGMTFIQPTTIDELIARREATQEWARMSAGMMGRSPDYLNAEVMAMGVANDLFAEDDPMFAENAKNYYEYARENDISLTHTLIHPQMNRAKALHEQNDADVPLHLVERRKDGIIVSGIRLLATQGGITDEILVFPSTVKKSTAGEDPYALAFAIPNNTPGVKFICREAFDYGRSSWDHPLASRFEEGDAIVSFENVFVPWERVFVCGNSSICNRTFRETNAVIHMSHQVVAKNIVKTEFLLGVTLCLIEAIGIGEFQHVKDKGAEIMLVLETMKSHLYRAEHNAKRDRWGTMTPDFAALDAARNWYPRIYPRLSEIIRILGASGLMAIPTEADFHNEEIGEIVSRAMQGATVDGYERVQLFRLAWDLTMSAFGARQTHYEYYFFGDPVRMGMAYFDGYEKEPYKQFVREFLRGAKSVFIPSDNKH | not soluble
11 | MPAPLSIVIPTLQAESSLPRLLEALIEGLPNGLIREVIVSDGGSQDATRAIAEAAGAQVLNGPPSRGGQLRHGCDAARGDWLLVLHADTLPDPGWAGVVADHIAAREDAACFRLAFRARGPGAAWVAGWANLRTRLFGLPYGDQGLLIRRRDYQTAGGYPDQLLMEDVHLVRALSRAPVLLPHRALTGAERYLRSGWLRRGARNLWTLMRYFAGTDPEALARAYRRLEHHHHHH | not soluble
12 | MPASEQGFWRGMETCGWGGGSYILYAWARNAPNLVLPKDVAFSVGHEQDGIKYFVLQVHYAQPFAGEVHDFSGVTMHISQKKPMNLAAVMLFVSGTPIPPQLPAFQNNITCMFESSTPIHPFAFRTHTHAMGRLVSAFFKHDGHWTKIGKRNPQWPQLFEGIPSKLMIGSGDQMSASCRFDSMDKNRTVNMGAMGVDEMCNFYMMFHYDAKLDNPYPQGAICAKDYPSKMIDYPKDGFELLPSRPELEHHAHQSKVPFGIVQEAIHENLGGVKLGQVAGLAFNNEQQLLVFQRAGRVWDASTFDNYNILLDKKPIADPVILVISYSGNQTKLERKLGGGQFYLPHGIYVDKDGFVYTTDVGSHTVAKWKIEGNELKNIWTSGELLMPGSDQHHYCKPTGITRVEDQLYVTDGYCNSRVVVLDLNGKRIRQFGLPGEDAGQFNLPHDIVSDSAGRLLVTDRENGRVQHMTTQGHVIEEFKSTMFTNIYSAASHEDYVFMVPGRPIMGHETEGIAVFVGRSGTGLIEYAFGPTTKGKREQMGPQFGQPHCLRVCPDGGHIFVGDIAEGKARLWQFKVNLLEMCGSKYDMIKIKLMILP | not soluble
13 | MPDADVNDFELVDVDQKAADKAIKDLGVKATIDEVCTVGEEGYVVTATDKEGYGGDIKITVGITADGTINGISILSISETAGLGMRATEPAFYEQYQGKQAEKFVVSKDGGDGEPIDALSGATITSRAVTGAVNAALGYYQNAFLEHHHHHH | soluble
14 | MPDAVYVFTPKGHIRALPRGATALDFAYAVHSDLGNQCVAVKINNELLPLRTELKSGDIVEVVTAPYSKLEHHHHHH | not soluble
15 | MPDFKIVISDPQSVEPKRIKVKVKASDQVKSITGEKDGKAVPQAKVNEKTKQLLNVDTLLTLEITKQEGDKKVKVKGHFKVDVDNSVPDNEVWISKTMAEKFGAEDFEAFAYRTKTLQISVDQNKATNLVGLKIGDVFEANQLIGLPVKLKITGGSDNSGFPMRFDVIGAAKRKILLSGPPGFYPNENGERRRKTIRGNTISQEIVQINTIIVRLEHHHHHH | soluble
16 | MPDGAQIQGLRPNGQSMEADMKLAVVTGQIVCTVRHQGLAHDKLLMVEMIDAQGNPDGQCAVAIDSIGAGTGEWVLLVSGSSARQAHRSELSPVDLCVIGIVDEVVAGGKVVFHKLEHHHHHH | not soluble
